Patent US20200115447A1 (Chugai, published 2020)
Substitutions are numbered along the chain they refer to.

Legend:
[1] = biological target: T1, soluble human IL-6 receptor (human, UniProt P08887 20-357); assay: SPR (Biacore T100), antibody captured via protein A/G on a CM5 chip, human IL-6 receptor injected for 3 min, 1.2 mM CaCl2, pH 7.4, 37 C
T1 construct: also called hsIL-6R
T1 sequence: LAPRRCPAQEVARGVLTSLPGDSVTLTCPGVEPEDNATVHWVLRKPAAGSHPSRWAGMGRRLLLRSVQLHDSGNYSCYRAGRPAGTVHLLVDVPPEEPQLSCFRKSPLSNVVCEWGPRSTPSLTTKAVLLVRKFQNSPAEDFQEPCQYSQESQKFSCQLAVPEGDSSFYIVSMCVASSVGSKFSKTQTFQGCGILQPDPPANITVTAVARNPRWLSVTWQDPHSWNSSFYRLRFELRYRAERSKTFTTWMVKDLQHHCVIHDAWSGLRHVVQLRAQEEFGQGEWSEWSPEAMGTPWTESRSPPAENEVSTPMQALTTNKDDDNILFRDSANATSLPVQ
Procedure: Interaction analyses were performed in a solution with a calcium ion concentration of 1.2 mM for the high calcium ion concentration condition or 3 μM for the low calcium ion concentration condition. A suitable amount of protein A/G (Invitrogen) was immobilized onto a Sensor chip CM5 (GE Healthcare) by the amine coupling method, and then antibodies of interest were captured onto the chips. Two types of buffers, 20 mM ACES, 150 mM NaCl, 0.05% (w/v) Tween 20, 1.2 mM CaCl₂ (pH 7.4) or 20 mM ACES, 150 mM NaCl, 0.05% (w/v) Tween 20, 3 μM CaCl₂ (pH 7.4), were used as the running buffer. […] All measurements were taken at 37° C.
Then, 10 mM glycine-HCl (pH 1.5) was injected at a flow rate of 30 μL/min for 30 seconds to regenerate the sensor chip.

[2] = biological target: T1, soluble human IL-6 receptor; assay: SPR (Biacore T100), about 300 RU of antibody captured via protein A/G on a CM5 chip, human IL-6 receptor injected for 3 min, pH 7.4, 1.2 mM CaCl2, 37 C
Procedure: The interaction for the antigen-antibody reaction was analyzed in solutions at pH 7.4 and pH 6.0, corresponding to a neutral pH and acidic pH conditions, respectively. An appropriate amount of Protein A/G (Invitrogen) was immobilized onto a Sensor chip CM5 (GE Healthcare) by an amino coupling method, and about 300 RU each of antibodies of interest were captured onto the chip. The two types of running buffers used were: 20 mM ACES/150 mM NaCl/0.05% (w/v) Tween20/1.2 mM CaCl₂ (pH 7.4); and 20 mM ACES/150 mM NaCl/0.05% (w/v) Tween20/1.2 mM CaCl₂ (pH 6.0). […] All measurements were carried out at 37° C.
Then, 10 mM glycine-HCl (pH 1.5) was injected at a flow rate of 30 μl/min for 30 seconds to regenerate the sensor chip.

human FcRn [3] = biological target: T2, human FcRn (human); assay: Biacore SPR, pH7.0, against VH3/L(WT)-IgG1
T2 construct: also called soluble human FcRn complexed with β2-microglobulin
Procedure: (§1) Kinetic analyses between human FcRn and the antibody were carried out using Biacore T100 (GE Healthcare). A suitable amount of protein L (ACTIGEN) was immobilized onto a Sensor chip CM4 (GE healthcare) by the amine coupling method, and antibodies of interest were captured onto it. Next, diluted solutions of FcRn and the running buffer which is the blank were injected, and human FcRn was made to interact with the antibodies captured on the sensor chip. The running buffer used was 50 mmol/L sodium phosphate, 150 mmol/L NaCl, 0.05% (w/v) Tween 20, pH7.0, and the buffer was used for the FcRn dilutions. The sensor chip was regenerated using 10 mmol/L Glycine-HCl, pH1.5. All measurements were carried out at 25° C. Based on the association rate constant ka (1/Ms) and dissociation rate constant kd (1/s), which are kinetic parameters, calculated from the sensorgram obtained by the measurement, the KD (M) (affinity) of each antibody toward human FcRn was calculated. Each parameter was calculated using the Biacore T100 Evaluation Software (GE Healthcare).

human FcRn [4] = biological target: T3, human FcRn (human); assay: Biacore, pH 7.0
T3 construct: also called soluble human FcRn complexed with β2-microglobulin
Procedure: as §1

human FcRn [5] = biological target: T4, human FcRn (human); assay: Biacore SPR, antibody captured on protein L, human FcRn as analyte, pH 7.0, 25 C
T4 construct: also called soluble human FcRn complexed with β2-microglobulin
Procedure: as §1

[6] = biological target: T5, mFcγRI extracellular domain with C-terminal His-tag (mouse, UniProt P26151 25-297); assay: Biacore SPR, antibody captured on Protein L, FcγR extracellular domain as analyte, 25 C
T5 construct: extracellular domain; also called mouse FcγRI
T5 sequence (looked up): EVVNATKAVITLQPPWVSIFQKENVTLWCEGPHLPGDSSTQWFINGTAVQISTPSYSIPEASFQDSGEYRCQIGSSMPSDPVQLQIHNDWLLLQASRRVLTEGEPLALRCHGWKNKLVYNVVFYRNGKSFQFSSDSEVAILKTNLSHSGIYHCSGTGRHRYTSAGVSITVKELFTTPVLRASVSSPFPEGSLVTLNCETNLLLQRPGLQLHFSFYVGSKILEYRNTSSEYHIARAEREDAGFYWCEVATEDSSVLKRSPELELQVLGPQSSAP
Procedure: (§2) Analysis of interaction between each of the altered antibodies and the extracellular domain of the Fcγ receptor prepared as mentioned above was carried out using Biacore T100 (GE Healthcare), Biacore T200 (GE Healthcare), Biacore A100, and Biacore 4000. HBS-EP+(GE Healthcare) was used for the running buffer, and the interactions were measured with a measurement temperature at 25° C. Chips produced by immobilizing Protein L (ACTIGEN or BioVision) by the amine coupling method to a Series S sensor Chip CM5 (GE Healthcare) or Series S sensor Chip CM4 (GE Healthcare) were used.
After capturing of each of the altered antibodies onto these sensor chips, the extracellular domain of the Fcγ receptor diluted with the running buffer was allowed to act on the chips to measure the binding level of each of the domains to each of the antibodies, and the binding levels were compared. However, since the amount of the bound extracellular domain of the Fcγ receptor depends on the amount of the antibodies captured on the sensorchip, the amount of the bound extracellular domain of the Fcγ receptor was divided by the respective amount of captured antibody to obtain corrected values, and these values were compared. Furthermore, by reaction with 10 mM glycine-HCl having pH of 1.5, antibodies captured onto the sensor chips were washed, and the regenerated sensor chips were used repeatedly.

[7] = biological target: T6, mFcγRII extracellular domain with C-terminal His-tag (mouse, UniProt P08101 30-210); assay: Biacore SPR, antibody captured on Protein L, FcγR extracellular domain as analyte, 25 C, 1:1 Langmuir fit
T6 construct: extracellular domain; also called mouse FcγRII
T6 sequence (looked up): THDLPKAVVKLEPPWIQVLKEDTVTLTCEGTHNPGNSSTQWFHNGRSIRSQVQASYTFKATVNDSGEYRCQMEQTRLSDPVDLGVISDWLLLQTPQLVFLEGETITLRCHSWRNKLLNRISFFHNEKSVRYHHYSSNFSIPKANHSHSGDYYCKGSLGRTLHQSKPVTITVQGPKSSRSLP
Procedure: as §2
(§3) The KD values of each of the altered antibodies for the extracellular domain of the Fcγ receptor were calculated according to the following kinetic analysis method.

[8] = biological target: T7, mFcγRIII extracellular domain with C-terminal His-tag (mouse, UniProt P08508 31-215); assay: as above
T7 construct: extracellular domain; also called mouse FcγRIII
T7 sequence (looked up): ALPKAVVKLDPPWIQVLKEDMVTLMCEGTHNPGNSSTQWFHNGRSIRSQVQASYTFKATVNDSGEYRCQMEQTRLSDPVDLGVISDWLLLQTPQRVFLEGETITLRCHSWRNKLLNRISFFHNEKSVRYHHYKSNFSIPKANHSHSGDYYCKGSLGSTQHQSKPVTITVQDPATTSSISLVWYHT
Procedure: as §2, §3

mouse FcRn = biological target: T8, mouse FcRn (mouse, UniProt Q61559 22-297; P01887 21-119, limits assumed); assay: Biacore SPR, mouse FcRn, pH 7.0
T8 sequence (looked up) 1: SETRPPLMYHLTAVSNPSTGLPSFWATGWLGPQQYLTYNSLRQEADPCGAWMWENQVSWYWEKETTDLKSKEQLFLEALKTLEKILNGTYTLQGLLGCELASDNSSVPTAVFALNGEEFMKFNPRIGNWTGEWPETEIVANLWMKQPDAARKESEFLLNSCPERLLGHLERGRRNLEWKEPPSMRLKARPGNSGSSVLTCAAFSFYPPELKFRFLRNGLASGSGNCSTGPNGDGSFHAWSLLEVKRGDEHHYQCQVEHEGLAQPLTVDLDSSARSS
T8 sequence (looked up) 2: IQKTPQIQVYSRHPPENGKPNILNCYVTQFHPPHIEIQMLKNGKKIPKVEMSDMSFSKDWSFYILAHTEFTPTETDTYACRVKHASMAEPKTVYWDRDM

[9] = biological target: T5, mFcγRI extracellular domain with …; assay: Biacore SPR, antibody captured on Protein L, FcγR extracellular domain as analyte, 25 C, 1:1 Langmuir fit
Procedure: as §2, §3

[10] = biological target: T9, mFcγRIV extracellular domain with C-terminal His-tag (mouse); assay: as above
T9 construct: extracellular domain; also called mouse FcγRIV
T9 sequence (A0A0B4J1G0 21-203, looked up): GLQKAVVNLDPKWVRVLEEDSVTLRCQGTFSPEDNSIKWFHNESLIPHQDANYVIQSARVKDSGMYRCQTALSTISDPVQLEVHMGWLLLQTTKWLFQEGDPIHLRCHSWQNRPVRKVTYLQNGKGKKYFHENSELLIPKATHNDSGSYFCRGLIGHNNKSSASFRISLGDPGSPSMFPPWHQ
Procedure: as §2, §3

B1: Tocilizumab (antibody, human IgG1, kappa, V domains shown)
VH: QVQLQESGPGLVRPSQTLSLTCTVSGYSITSDHAWSWVRQPPGRGLEWIGYISYSGITTYNPSLKSRVTMLRDTSKNQFSLRLSSVTAADTAVYYCARSLARTTAMDYWGQGSLVTVSS
VL: DIQMTQSPSSLSASVGDRVTITCRASQDISSYLNWYQQKPGKAPKLLIYYTSRLHSGVPSRFSGSGSGTDFTFTISSLQPEDIATYYCQQGNTLPYTFGQGTKVEIKR
notes: also called anti-IL-6R antibody (tocilizumab); control antibody
B1: binds [1].

B2: 6RpH#02 (antibody, human IgG1, kappa, V domains shown)
VH: QVQLVQSGAEVKKPGSSVKVSCKASGGTFSSYAISWVRQAPGQGLEWMGGIIPIFGTANYAQKFQGRVTITADESTSTAYMELSSLRSEDTAVYYCMINGVWEGGMDVWGQGTTVTVSS
VL: DIQMTQSPSSLSASVGDRVTITCRASQSIHSHLNWYQQKPGKAPKLLIYHASKLQSGVPSRFSGSGSGTDFTLTISSLQPEDFATYYCQQHGNSPLTFGQGTKVEIKR
B2: binds [2].

B3: 6RpH#01 (antibody, human IgG1, kappa, V domains shown)
VH: EVQLVQSGAEVKKPGSSVKVSCKASGGTFSSYAISWVRQAPGQGLEWMGGIIPIFGTANYAQKFQGRVTITADESTSTAYMELSSLRSEDTAVYYCARASIYCSSTSCYEPPYYYYMDVWGKGTMVTVSS
VL: B2 VL with H30S, N34A, H50A, K53H, H91S, G92H, S94Y
B3: binds [2].

B4: 6RC1IgG_012 (antibody, V domains shown)
VH: QVQLVQSGAEVKKPGASVKVSCKASGYTFTSYGISWVRQAPGQGLEWMGWISAYNGNTNYAQKLQGRVTMTTDTSTSTAYMELRSLRSDDTAVYYCARATYYYDSSAPAFDIWGQGTMVTVSS
VL: B2 VL with H30E, S31D, H32D, N34A, H50E, K53T, G92D, N93D
B4: binds [1].

B5: 6RC1IgG_010 (antibody, V domains shown)
VH: QVQLVQSGAEVKKPGSSVKVSCKASGGTFSSYAISWVRQAPGQGLEWMGGIIPIFGTANYAQKFQGRVTITADESTSTAYMELSSLRSEDTAVYYCARAAFLEWPIWGSEYFQHWGQGTLVTVSS
VL: B2 VL with H30E, S31D, H32D, N34A, K53S, H91R, G92D, N93S, S94Y
B5: binds [1].

B6: 6RC1IgG_019 (antibody, V domains shown)
VH: EVQLVQSGAEVKKPGSSVKVSCKASGGTFSSYAISWVRQAPGQGLEWMGGIIPIFGTANYAQKFQGRVTITADESTSTAYMELSSLRSEDTAVYYCARDRGSGFNWGNYAFDIWGQGFSVTVSS
VL: DIQMTQSPSSLSASVGDRVTITCRASQSIEDDLAWYQQKPGKAPKLLIYEASNLQSGVPSRFSGSGSGTDFTLTISSLQPEDFATYYCQQYDRYPYTFGQGTKVEIKR
B6: binds [1].

B7: IgG1-F157 (antibody)
heavy: QVQLQESGPGLVKPSETLSLTCAVSGHSISHDHAWSWVRQPPGEGLEWIGFISYSGITNYNPSLQGRVTISRDNSKNTLYLQMNSLRAEDTAVYYCARSLARTTAMDYWGEGTLVTVSSASTKGPSVFPLAPSSKSTSGGTAALGCLVKDYFPEPVTVSWNSGALTSGVHTFPAVLQSSGLYSLSSVVTVPSSSLGTQTYICNVNHKPSNTKVDKKVEPKSCDKTHTCPPCPAPELLGGPSVFLFPPKPKDTLMISRTAEVTCVVVDVSHEDPEVKFNWYVDGVEVHNAKTKPREEQYNSTYRVVSVLTPLHQDWLNGKEYKCKVSNKALPAPIEKTISKAKGQPREPQVYTLPPSRDELTKNQVSLTCLVKGFYPSDIAVEWESNGQPENNYKTTPPVLDSDGSFFLYSKLTVDKSRWQQGNVFSCSVLHEALHYHYTQKSLSLSP
light: not shown
notes: EU numbering; also called VH3/L(WT)-F157; copies: 2 + 2
For B7, the “fold affinity relative to IgG1” value (human FcRn [3]) was about 600 fold.

B8: F1353 (antibody)
heavy: B7 heavy with L237R, S241K, M254Y, A259P, P310V, L430M, H435D, Y438T, Q440R, S442E
light: not shown
notes: EU numbering; copies: 2 + 2
A Kd (human FcRn [4]) of 133 nM was found for B8 in this work.

B9: F1430 (antibody, IgG1, name in EU numbering)
heavy: QVQLQESGPGLVKPSETLSLTCAVSGHSISHDHAWSWVRQPPGEGLEWIGFISYSGITNYNPSLQGRVTISRDNSKNTLYLQMNSLRAEDTAVYYCARSLARTTAMDYWGEGTLVTVSSASTKGPSVFPLAPSSKSTSGGTAALGCLVKDYFPEPVTVSWNSGALTSGVHTFPAVLQSSGLYSLSSVVTVPSSSLGTQTYICNVNHKPSNTKVDKKVEPKSCDKTHTCPPCPAPELRGGPKVFLFPPKPKDTLYISREPEVTCVVVDVSHEDPEVKFNWYVDGVEVHNAKTKPREEQYNSTYRVVSKLTPLHQDWLNGKEYKCKVSNKALPAPIEKTISKAKGQPREPQVYTLPPSRDELTKNQVSLTCLVKGFYPSDIAVEWESNGQPENNYKTTPPVLDSDGSFFLYSKLTVDKSRWQQGNVFSCSVMHEALDYHVTRKELSLSP
light: not shown
notes: EU numbering; copies: 2 + 2
A Kd (human FcRn [5]) of 31 nM was found for B9 in this work.

B10: Fv4-mIgG1 (antibody)
heavy: QVQLQESGPGLVKPSETLSLTCAVSGHSISHDHAWSWVRQPPGEGLEWIGFISYSGITNYNPSLQGRVTISRDNSKNTLYLQMNSLRAEDTAVYYCARSLARTTAMDYWGEGTLVTVSSAKTTPPSVYPLAPGSAAQTNSMVTLGCLVKGYFPEPVTVTWNSGSLSSGVHTFPAVLQSDLYTLSSSVTVPSSTWPSETVTCNVAHPASSTKVDKKIVPRDCGCKPCICTVPEVSSVFIFPPKPKDVLTITLTPKVTCVVVDISKDDPEVQFSWFVDDVEVHTAQTQPREEQFNSTFRSVSELPIMHQDWLNGKEFKCRVNSAAFPAPIEKTISKTKGRPKAPQVYTIPPPKEQMAKDKVSLTCMITDFFPEDITVEWQWNGQPAENYKNTQPIMDTDGSYFVYSKLNVQKSNWEAGNTFTCSVLHEGLHNHHTEKSLSHSPGK
light: DIQMTQSPSSLSASVGDSVTITCQASTDISSHLNWYQQKPGKAPELLIYYGSHLLSGVPSRFSGSGSGTDFTFTISSLEAEDAATYYCGQGNRLPYTFGQGTKVEIERADAAPTVSIFPPSSEQLTSGGASVVCFLNNFYPKDINVKWKIDGSERQNGVLNSWTDQDSKDSTYSMSSTLTLTKDEYERHNSYTCEATHKTSTSPIVKSFNRNEC
notes: VH3-mIgG1 with VL3-mCK; copies: 2 + 2
B10 was tested, and the binding result [6] was “no binding”, the Kd [7] was 570 nM and the Kd [8] was 85 nM.

B11: Fv4-mF3 (antibody, mouse IgG1, kappa)
heavy: B10 heavy with T248Y, T252E, H429K, N430F
light: B10 light
notes: VH3-mF3 with VL3-mCK; copies: 2 + 2
With B11 the Kd (mouse FcRn) was 1.5 nM, the binding result [6] was “no binding” and the Kd [7] was 870 nM. For the same binder, the Kd [8] was 140 nM.

B12: Fv4-mIgG2a (antibody)
heavy: QVQLQESGPGLVKPSETLSLTCAVSGHSISHDHAWSWVRQPPGEGLEWIGFISYSGITNYNPSLQGRVTISRDNSKNTLYLQMNSLRAEDTAVYYCARSLARTTAMDYWGEGTLVTVSSAKTTAPSVYPLAPVCGDTTGSSVTLGCLVKGYFPEPVTLTWNSGSLSSGVHTFPAVLQSDLYTLSSSVTVTSSTWPSQSITCNVAHPASSTKVDKKIEPRGPTIKPCPPCKCPAPNLLGGPSVFIFPPKIKDVLMISLSPIVTCVVVDVSEDDPDVQISWFVNNVEVHTAQTQTHREDYNSTLRVVSALPIQHQDWMSGKEFKCKVNNKDLPAPIERTISKPKGSVRAPQVYVLPPPEEEMTKKQVTLTCMVTDFMPEDIYVEWTNNGKTELNYKNTEPVLDSDGSYFMYSKLRVEKKNWVERNSYSCSVVHEGLHNHHTTKSFSRTPGK
light: B10 light
notes: VH3-mIgG2a with VL3-mCK; copies: 2 + 2
A Kd [9] of 3.9 nM, a Kd [7] of 480 nM and a Kd [8] of 45 nM were found for B12 in this work. For the same binder, the Kd [10] was 3.2 nM.

B13: Fv4-mFa30 (antibody, mouse IgG2a, kappa)
heavy: B12 heavy with S241D, M254Y, S258E, K328D, L330Y, H435K, N436F
light: B10 light
notes: VH3-mFa30 with VL3-mCK; copies: 2 + 2
A Kd (mouse FcRn) of 3.5 nM, a Kd [9] of 0.99 nM and a Kd [7] of 8.1 nM were found for B13 in this work. For the same binder, the Kd [8] was 5.3 nM and the Kd [10] was 19 nM.
